The record followed here is patent US9248180B2, “IC31 nanoparticles” (Valneva Austria GmbH, priority 2010, dated 2016).

Series [1] relates to CD8+ cells from the lungs. The series is described as follows: Cytometric Bead Array of cytokines produced by CD8+ lung cells of vaccinated mice. The conditions noted are these: immunizations d0, d13, d28. The class given is in vivo, C57BL/6 mice.
A short description of series [2]: Viscosity and sterile-filterability of KLK in 10 mM Tris as a function of pH. The class given is physicochemical. Conditions: for Viscosity (cP): 2000 nmol/mL KLK in 10 mM Tris, no salt; for Sterile-filterable: 0.2 μm filter. As for the experimental part:
For sterile filtration, appropriate viscosity of the mixture to be filtered is also critical. Viscosity can be measured e.g. on a Brookfield DV-E rotation viscometer at 20° C. using an LV61 spindle and can be reported as centipoise (cP=milliPascal seconds). Preferred compositions have a viscosity of less than 15 cP. Even more preferred compositions have viscosities of less than 12 cP or even less than 10 cP.
One of the key factors for sterile-filterable compositions is viscosity. At a viscosity >15 cP, sterile filtration through a 0.2 μm filter is no longer possible. The final viscosity of the nanoparticulate IC31® composition correlates to the final pH of the composition due to the fact that the viscosity of KLK in solution increases drastically with increasing pH, resulting in non-sterile-filterable formulations at a final pH of around 7.2.

[3] abbreviates: CD8+ lung cells stimulated with Medium.
[4] abbreviates: CD8+ lung cells stimulated with SVN19-28.
The mark [5] stands for this setting: CD8+ lung cells stimulated with TRP-2180-188.

Several values for one entry are separate records, joined by “and”; a condition that tells them apart may be missing. Identical values can stand only once.

In series [1] (setting [3]), SVYDFFVWL [TRP-2180-188] came in with a GM-CSF of 46 pg/mL, an IFN-γ of 41 pg/mL, an IL-6 of 109 pg/mL and a TNF-α of 14 pg/mL. Besides, in series [1] (setting [4]), the GM-CSF worked out at 57 pg/mL, the IFN-γ came out at 199 pg/mL, the IL-2 turned out to be 43 pg/mL and the IL-6 turned out to be 115 pg/mL. Also, in series [1] (CD8+ lung cells stimulated with SVN19-28de), the TNF-α is on record as 9 pg/mL. Also, in series [1] (setting [5]), the GM-CSF came to 48 pg/mL, the IFN-γ was found to be 301 pg/mL, the IL-2 stood at 33 pg/mL and the IL-6 is on record as 185 pg/mL. Besides, in series [1] (setting [5]), the IL-10 stood at 56 pg/mL and the TNF-α came to 24 pg/mL.
Consider “KLKLLLLLKLK [peptide component of IC31®]”, for which the “Viscosity (cP)” value in series [2] (pH 6.24) was determined as 9.69 cP; in series [2] (pH 6.4), 8.06 cP; in series [2] (pH 6.6), 10.00 cP; in series [2] (pH 6.73) it was 10.00 cP; in series [2] (pH 6.88), 10.94 cP; in series [2] (pH 7.03) it was 11.25 cP. The “Viscosity (cP)” value is 15.00 cP in series [2] (pH 7.22); 16.88 cP in series [2] (pH 7.39); 16.88 cP in series [2] (pH 7.7); 25.00 cP in series [2] (pH 7.96); 21.88 cP and 24.38 cP in series [2] (pH 8.4); 87.50 cP in series [2] (pH 8.8). Besides, the Sterile-filterable entry in series [2] (pH 6.24), in series [2] (pH 6.4), in series [2] (pH 6.6), in series [2] (pH 6.73), in series [2] (pH 6.88) and in series [2] (pH 7.03) was “Yes” in each case. Besides, the Sterile-filterable entry in series [2] (pH 7.22) is “Yes/No*”; in series [2] (pH 7.39), “No”; in series [2] (pH 7.7) it was “No”; in series [2] (pH 7.96) it was “No”; in series [2] (pH 8.4), “No”; in series [2] (pH 8.8), “No”.
